A word on the Kd: it is the concentration at which binding is half-saturated. For orientation: koff means a measure of how fast the partners let go of each other. The kon is the rate constant with which the complex forms.

For experiment [1], the target named is T1, recombinant human CHI3L1 (human, UniProt P36222 22-383).
T1 construct: His-tagged recombinant protein (Sino Biological 11227-H08H, or in-house HEK293 protein with 6xHIS-tag and avi-tag); also called hCHI3L1; hChi3l1
As to the kind of experiment: Octet BLI. (In BLI a coated tip is dipped into the sample, and binding shifts an interference pattern.)

The target of experiment [2] is T2, recombinant mouse CHI3L1 (mouse, UniProt Q61362 30-389, limits assumed).
T2 construct: His-tagged; also called mCHI3L1; mChi3l1
Kind of experiment: Octet BLI.

Experiment [3] concerns the target T1, recombinant human CHI3L1. As to the kind of experiment: ELISA: human CHI3L1 coated on the plate, B cell culture supernatant 100 ul/well, A450. On the procedure:
(§1) FIG. 7. The ELISA binding of the supernatant antibody to the human CHI3L1. (hCHI3L1), and mouse CHI3L1 (mCHI3L1). The CHI3L1 protein was coated on maxi-sorp 96-well plates, cell culture supernatant (100 ul/well) was used for binding on the antigen coated plate. Binding signals (A450 nm) are shown in Y-axis and CHI3L1 mAbs are shown on X-axis.
(§2) Binding affinity of anti-CHI3L1 monoclonal antibodies to the CHI3L1 protein using ELISA method. Binding of CHI3L1 by monoclonal antibodies was first screened by ELISA using supernatants collected from the B cell cultures and cross reactivity to mouse CHI3L1 protein was determined (FIG. 7).
(ELISA stands for enzyme-linked immunosorbent assay.)

The target in experiment [4] is T2, recombinant mouse CHI3L1. As to the kind of experiment: ELISA: mouse CHI3L1 coated on the plate, B cell culture supernatant 100 ul/well, A450. On the procedure: as §1, §2
Experiment [5] has as its target T1, recombinant human CHI3L1. As to the kind of experiment: BLI (Octet), mAb on protein A sensor, CHI3L1 in solution, 1:1 fit. Here is the method: (§3) FIG. 8. Kinetic binding sensorgrams collected on Octet instrument for determination of kon and koff rates for each CHI3L1 antibody.
(§4) Binding affinity of anti-CHI3L1 monoclonal antibodies determined using Bio-layer interferometry (BLI), a sensor-based Octet instrument. […] Following by kinetics buffer washing to baseline, the loaded biosensors were exposed to a series of recombinant CHI3L1 protein at 0.1-200 nM range and background subtraction was used to correct for any background from sensor drifting. All experiments were performed with shaking at 1,000 rpm. Background wavelength shifts were measured from reference biosensors that were loaded with antibody and followed with buffer without antigen. ForteBio's data analysis software was used to fit the data to a 1:1 binding model to extract an association rate and dissociation rate. The KD was calculated using the ratio of koff/kon and the estimated values of KD for CHI3L1 mAbs in Table C.

Experiment [6] addresses T2, recombinant mouse CHI3L1. Described as above. On the procedure:
as §3, §4

T2 sequence (Q61362 30-389 limits assumed): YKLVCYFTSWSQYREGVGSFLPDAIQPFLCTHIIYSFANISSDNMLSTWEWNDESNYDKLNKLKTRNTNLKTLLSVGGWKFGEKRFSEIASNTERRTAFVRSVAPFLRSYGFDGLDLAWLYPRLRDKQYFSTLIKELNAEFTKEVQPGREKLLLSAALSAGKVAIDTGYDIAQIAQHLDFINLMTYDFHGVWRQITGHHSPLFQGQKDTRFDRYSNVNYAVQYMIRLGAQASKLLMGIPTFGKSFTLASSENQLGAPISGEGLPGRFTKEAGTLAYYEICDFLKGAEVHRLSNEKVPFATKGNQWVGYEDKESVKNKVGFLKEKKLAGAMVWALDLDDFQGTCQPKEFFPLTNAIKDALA
T1 sequence (P36222 22-383 limits assumed): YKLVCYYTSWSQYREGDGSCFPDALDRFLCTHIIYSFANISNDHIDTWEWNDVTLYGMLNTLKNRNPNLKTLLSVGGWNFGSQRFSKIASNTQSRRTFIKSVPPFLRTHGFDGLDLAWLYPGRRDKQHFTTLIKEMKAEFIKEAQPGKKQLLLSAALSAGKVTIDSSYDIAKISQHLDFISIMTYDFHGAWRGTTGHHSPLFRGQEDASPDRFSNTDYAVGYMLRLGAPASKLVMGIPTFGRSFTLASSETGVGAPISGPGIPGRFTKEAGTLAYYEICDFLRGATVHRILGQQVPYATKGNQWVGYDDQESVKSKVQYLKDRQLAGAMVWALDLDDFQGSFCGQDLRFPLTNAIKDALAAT

B1: humanized C59 antibody C59Hu (antibody, V domains shown)
VH: EVQLVESGGGLVQPGGSLRLSCAASGFTISSDYYMCWVRQAPGKGLEWIGCIYIGSGTDTYYADSVKGRFTISKHNSKNTLYLQMTSLRAEDTAVYYCARDKGWSNAWGFYFQLWGQGTLVTVSS
VL: DIQMTQSPSSLSASVGDRVTITCQASQSIGKYLNWYQQKPGKAPKLLIYSSSSLASGVPSRFSGSGFGTDFTLTISSLQPEDFATYYCQQGYSYVDLENGFGGGTKVEIK
notes: Humanized form of C59
For B1, in the experiment with recombinant human CHI3L1 [1], the Kd came to 4.5 nM, the koff is 0.000635 s⁻¹ and the association rate constant (kon) came to 141000 M⁻¹ s⁻¹. Besides, in the experiment with recombinant mouse CHI3L1 [2], the Kd was 4.44 nM, the koff was 0.00095 s⁻¹ and the kon turned out to be 214000 M⁻¹ s⁻¹.

B2: anti-CHI3L1 monoclonal antibody C29 (antibody, V domains shown)
VH: QEQLVESGGDLVKPEGSLTLTCTASGFSFSDNYWMCWVRQAPGKGLEWIGCIYIGFSGTTYYASWAKGRFTISKASSTTVTLQMTSLTGADTATYFCARGVFYVGSGYWYYLNLWGPGTLVTISS
VL: DVVMTQTPSSVSAAVGGTVTIKCQASQSIASYLAWYQQKPGQPPKLLIYRASTLASGVPSRFKGSGSGTEYTLTISDLECADAATYYCQTTYVGGSGNAFGGGTKVEIK
notes: Rabbit mAb
B2: the binding result in the experiment with recombinant human CHI3L1 [3] is recorded as “binds”; in the experiment with recombinant mouse CHI3L1 [4], “no binding”.

B3: anti-CHI3L1 monoclonal antibody C56 (antibody, V domains shown)
VH: QEQLVESGGDLVKPGASLTLTCTASGFSFSSSYWICWVRQAPGKGLELIACIYPSSSGSTDYASWAKGRFTISKTSSTTVTLQMTSLTAADTATYFCARDIPYNIHGYTTGFNLWGPGTLVTVSS
VL: ALVMTQTPASVEAAVGGTVTIKCQASQSIGSNLAWYQQKPGQPPKLLIYSASTLASGVSSRFKGSRSGTEFTLTISDLECADAATYYCQFTYYGSSDVDVFGGGTKVVVE
notes: Rabbit mAb from single B cells, expressed as full length IgG in HEK293
B3: in the experiment with recombinant human CHI3L1 [5], the Kd is less than 0.001 nM, the koff is less than 1e-07 s⁻¹ and the kon was found to be 189000 M⁻¹ s⁻¹. Besides, in the experiment with recombinant mouse CHI3L1 [6], the Kd stood at 7.92 nM, the koff was found to be 0.000592 s⁻¹ and the kon is 74800 M⁻¹ s⁻¹.

B4: anti-CHI3L1 monoclonal antibody C23 (antibody, V domains shown)
VH: QSVKESGGGLVQPGGSLTLSCKASGFDFSSYYMSWVRQAPGKGLEWIGIIYGGKGTTDYASWVNGRFTISSDNAQNTVDLQMNSLTAADTATYFCARDYVSSSGYYMDLWGPGTLVTVSS
VL: ALVMTQTPASVSAAVGGTVTIKCQASEDIYSLLAWYQQKPGQPPKLLIYDASDLASGVPSRFSGSGSGTEYTLTISDLECDDAATYYCQGGYYSGSPTDNSFGGGTKVVVE
notes: Rabbit mAb
With B4, the binding result is “binds” with recombinant human CHI3L1 [3] and “no binding” with recombinant mouse CHI3L1 [4].

B5: humanized C7 antibody C7Hu (antibody, V domains shown)
VH: QVQLVESGGGVVQPGRSLRLSCAASGFTLTTYWVCWVRQAPGKGLEWVACIDAGSITYYTTWARGRFTISRDNSTNTLFLQMNSLRAEDTAVYYCARDAHYTYALVLWGRGTLVTVSS
VL: DIQMTQSPSSVSASVGDRVTIKCQASEDIESYLAWYQQKPGKAPKLLIYDASDLASGVPSRFSGSGSGTDFTLTISSLQPEDAATYYCQGYSYGSSYVGFGGGTKVEIK
notes: Humanized form of C7
B5: in the experiment with recombinant human CHI3L1 [1], the Kd amounted to 0.88 nM, the koff was 0.000492 s⁻¹ and the kon is 559000 M⁻¹ s⁻¹.

B6: anti-CHI3L1 monoclonal antibody C59 (antibody, V domains shown)
VH: QSVEESGGDLVKPGASLTLTCTASGFTISSDYYMCWVRQAPGKGLEWIGCIYIGSGTDTYYASWAKGRFTISKTSSTTVTLQMTSLTAADTATYFCARDKGWSNAWGFYFQLWGPGTLVTVSS
VL: DPVLTQTPASVEVPVGGTVTINCQASQSIGKYLNWYQQKPGQPPKLLIYSSSSLASGVSSRFKGSGFGTQFTLTISGVQCADAATYYCQQGYSYVDLENGFGGGTELEIL
notes: Rabbit mAb from single B cells, expressed as full length IgG in HEK293; also called clone 59; C59mAb
Turning to B6, in the experiment with recombinant human CHI3L1 [5], the Kd came to 1.42 nM, the koff is 0.000235 s⁻¹ and the kon is 166000 M⁻¹ s⁻¹. For the same molecule, in the experiment with recombinant mouse CHI3L1 [6], the Kd was 3.43 nM, the koff is 0.000402 s⁻¹ and the kon turned out to be 117000 M⁻¹ s⁻¹.

B7: anti-CHI3L1 monoclonal antibody C27 (antibody, V domains shown)
VH: QSVEESGGGLVKPEGSLTLTCTASGFSFSYRYYMCWVRQAPGKGLEWIGCIDNGDGDTYYASWVNGRFTISKASSTTVTLQMTSLTAADTATYFCARGSSGYNGFNFWGPGTLVTVSS
VL: ALVMTQTPASVSAAVAGTVTIKCQASQSIGSYLAWYQQKPGQPPKLLIYATSILASGVSSRLKGSRSGTEYTLTISDLECADAATYYCQCGYYDSNYGGAFGGGTEVVVK
notes: Rabbit mAb
For the molecule B7, the binding result with recombinant human CHI3L1 [3] is “binds”; with recombinant mouse CHI3L1 [4], “no binding”.

B8: anti-CHI3L1 monoclonal antibody C28 (antibody, V domains shown)
VH: QQLKESGGDLVKPGASLTLTCTASGFSFSSGYYMCWVRQAPGKGLEWIACIGASSGLTNYASWAKGRFTISKTSSTTVTLRMTSLTAADTATYFCARVYLGGADYEQFNLWGPGTLVTVSS
VL: AQVLTQTPSSASEPVGGTVTIKCQAGESVSSRVAWYQQKPGQPPKLLIFDASALASGVSSRFTGSGSGTQFTLTISDLECADAATYYCQNYYGISGVAFGGGTEVVVK
notes: Rabbit mAb
Consider B8, for which the binding result with recombinant human CHI3L1 [3] is reported as “binds”; with recombinant mouse CHI3L1 [4], “no binding”.

B9: anti-CHI3L1 monoclonal antibody C53 (antibody, V domains shown)
VH: QEQLVESGGDLVKPGASLTLTCTASGFSFSSSHYMCWVRQAPGKGLEWIACIYLGDDSTYYASWVNGRFSISKTSSTTVTLQMTSLTAADTATYFCARHGYNLAIHNYIIWGPGTLVTVSS
VL: DVVMTQTPSSVEAGVGGTVTIKCQASESSSRHLSWYQQKPGQRPKLLIYWASTLASGVPSRFQGSGSGTEFTLTISDLECADAATYYCQSYYGLSNNGWRYAFGGGTEVVVK
notes: as for B3
As to B9, in the experiment with recombinant human CHI3L1 [5], the Kd was less than 0.001 nM, the koff is less than 1e-07 s⁻¹ and the kon was found to be 137000 M⁻¹ s⁻¹. Besides, in the experiment with recombinant mouse CHI3L1 [6], the dissociation constant Kd worked out at 3.54 nM, the koff is 0.000273 s⁻¹ and the on-rate (kon) stood at 77300 M⁻¹ s⁻¹.

B10: anti-CHI3L1 monoclonal antibody C25 (antibody, V domains shown)
VH: QSVEESGGDLVKPGASLTLTCTASGFSFSSSYYMCWVRQAPGKGLEWIACIYAGSSGSTWYASWAKGRFTISITSSTTVTLQMTSLTAADTATYFCARDRYGGGSYYIPYYFDLWGPGTLVTVSS
VL: ALVMTQTPSPVSAAVGGTVTINCQASQNIYVDSYLAWYQQKSGQPPKLLIYYASSLASGVPSRFSGSGSGTQFTLTISDLECDDAATYYCAGGYSADSDNAFGGGTEVVVK
notes: Rabbit mAb
As to B10, the binding result was “binds” with recombinant human CHI3L1 [3] and “no binding” with recombinant mouse CHI3L1 [4].

For the origin of these results see patent US20240294670A1 (University of Texas, published 2024).
